Results as given in patent US20250027068.

These proteins were tested against pooled human IgG.

| Protein | Enzyme Activity Endpoint Assay: Fab′2 [ng/µL] | Enzyme Activity Endpoint Assay: Fc [ng/µL] | Enzyme Activity Endpoint Assay: IgG [ng/µL] | Enzyme Activity Endpoint Assay: scIgG [ng/µL] | Enzyme Activity Endpoint Assay (purified): Fab'2 [ng/µL] | Enzyme Activity Endpoint Assay (purified): Fc [ng/µL] | Enzyme Activity Endpoint Assay (purified): IgG [ng/µL] | Enzyme Activity Endpoint Assay (purified): scIgG [ng/µL] |
| --- | --- | --- | --- | --- | --- | --- | --- | --- |
| PRT-11 (protein) MANQEIRYSEETPYHVTSVWTKGVTPPANFTQGEDVFHAPYVANQGWYDITKTFNGKDDLLCGAATAGNMLHWWFDQNKDQIEKYLKEHPEKQKINFNGEQMFDVKEAIDTKDSQTDSKLFEYFKEKAFPYLSTKHLGVFPDHVIDMFINGYRLSLTNHGPTPVKEQSKDPRGGIFDAVFTRGDQSKLLTSRHDFKEKTLKEISDLIKKELSEGKALGLSHTYANVRINHVINLWGADFDSNGNLKAIYVTDSDSNASIGMKKYFVGVNSAGKVAISAKEIKEDNIGAQVLGLFTLSTGQDIWNQTN | 40 | 100 | 13 | 0 | – | – | – | – |
| PRT-12 (protein) MANQEIRYSEVTPYHVTSVWTKGVTPPADFTQGEDVFHAPYKANQGWYDITKTFNGKDDLLCGAATAGNMLHWWFDQNKDQIERYLKEHPEKQKINFNGEQMFDVKEAIDTKDSQTDSKLFEYFKEKAFPYLSTKHLGVFPDHVIDMFINGYRLSLTNHGPTPVKRGSKDPRGGFFDAVFTRGDQSKLLTSRHDFKEKTLNEISDLIKKELTEGKALGLSHTYANVRINHVINLWGADFDSNGNLEAIYVTDSDSNASIGMKKYFVGVNSAGKVAISAKEIKEDNIGAQVLGLFTLSTGQDIWEQTN | 47 | 122 | 16 | 14 | – | – | – | – |
| PRT-129 (protein) MRNATEAYAKEVPHQITSVWTKGVTPLTPEQFRYNNEDVFHAPYLANQGWYDITKAFDGKDNLLCGAATAGNMLHWWFDQNKTEIEAYLSKHPEKQKIIFNNQELFDLKAAIDTKDSQTNSQLFNYFRDKAFPNLSARQLGVMPDLVLDMFINGYYLNVFKTQSTDVNRPYQDKDKRGGIFDAVFTRGDQTKLLTARHDLKNKGLNDISTLIKQELTEGRALALSHTYANVSISHVINLWGADFNAEGNLEAIYVTDSDANASIGMKKYFVGINAHGHVAISAKKIEGENIGAQVLGLFTLSSGKDIWQKLS | – | – | – | – | 384 | 169 | 0 | 0 |
| PRT-139 (protein) MRNATEAYAKEVPHQITSVWTKGVTPLTPEQFRYNNEDVIHAPYLANQGWYDITKAFDGKDNLLCGAATAGNMLHWWFDQNKTEIEAYLSKHPEKQKIIFNNQELFDLKAAIDTKDSQTNSQLFNYFRDKAFPNLSARQLGVMPDLVLDMFINGYYLNVFKTQSTDVNRPYQDKDKRGGIFDAVFTRGDQTTLLTARHDLKNKGLNDISTIIKQELTEGRALALSHTYANVSISHVINLWGADFNAEGNLEAIYVTDSDANASIGMKKYFVGINAHGHVAISAKKIEGENIGAQVLGLFTLSSGKDIWQKLS | – | – | – | – | 733 | 213 | 0 | 0 |
| PRT-138 (protein) MRNATEAYAKEVPHQITSVWTKGVTPPTPEQFRYNNEDVIHAPYLAHQGWYDITKAFDGKDNLLCGAATAGNMLHWWFDQNKTEIEAYLSKHPEKQKIIFNNQELFDLKAAIDTKDSQTNSQLFNYFRDKAFPNLSARQLGVMPDLVLDMFINGYYLNVFKTQSTDVNRPYQDKDKRGGIFDAVFTRGDQTTLLTARHDLKNKGLNDISTIIKQELTEGRALALSHTYANVSISHVINLWGADFNAEGNLEAIYVTDSDANASIGMKKYFVGINAHGHVAISAKKIEGENIGAQVLGLFTLSSGKDIWQKLS | – | – | – | – | 563 | 215 | 0 | 144 |
| PRT-135 (protein) MRNATEAYAKEVPHQITSVWTKGVTPLTPEQFRYNNEDVIHAPYLAHQGWYDITKAFDGKDNLLCGAATAGNMLHWWFDQNKTEIEAYLSKHPEKQKIIFNNQELFDLKAAIDTKDSQTNSQLFNYFRDKAFPNLSARQLGVMPDLVLDMFINGYYLNVFKTQSTDVNRPYQDKDKRGGIFDAVFTRGDQTTLLTARHDLKNKGLNDISTIIKQELTEGKALALSHTYANVSISHVINLWGADFNAEGNLEAIYVTDSDANASIGMKKYFVGINAHGHVAISAKKIEGENIGAQVLGLFTLSSGKDIWQKLS | – | – | – | – | 526 | 140 | 0 | 6 |
| PRT-136 (protein) MRNATEAYAKEVPHQITSVWTKGVTPLTPEQFRYNNEDVIHAPYLAHQGWYDITKAFDGKDNLLCGAATAGNMLHWWFDQNKTEIEAYLSKHPEKQKIIFNNQELFDLKAAIDTKDSQTNSQLFNYFRDKAFPNLSARQLGVMPDLVLDMFINGYYLNVFKTQSTDVNRPYQDKDKRGGIFDAVFTRGDQTTLLTARHDLKNKGLNDISTIIKQELTEGRALALSHTYANVSISHVINLWGADFNAEGNLEAIYVTDSDANASIGMKKYFVGVNAHGHVAISAKKIEGENIGAQVLGLFTLSSGKDIWQKLS | – | – | – | – | 635 | 160 | 0 | 0 |
| PRT-130 (protein) MRNATEAYAKEVPHQITSVWTKGVTPLTPEQFRYNNEDVIHAPYLAHQGWYDITKAFDGKDNLLCGAATAGNMLHWWFDQNKTEIEAYLSKHPEKQKIIFNNQELFDLKAAIDTKDSQTNSQLFNYFRDKAFPNLSARQLGVMPDLVLDMFINGYYLNVFKTQSTDVNRPYQDKDKRGGIFDAVFTRGDQTTLLTARHDLKNKGLNDISDIIKQELTEGRALALSHTYANVSISHVINLWGADFNAEGNLEAIYVTDSDSNASIGMKKYFVGINAAGHVAISAKKIEGENIGAQVLGLFTLSSGKDIWQKLS | – | – | – | – | 592 | 192 | 0 | 0 |
| PRT-140 (protein) MRNATEAYAKEVPHQITSVWTKGVTPLTPEQFRYNNEDVIHAPYLAHQGWYDITKAFNGKDNLLCGAATAGNMLHWWFDQNKTEIEAYLSKHPEKQKIIFNNQELFDLKAAIDTKDSQTNSQLFNYFRDKAFPNLSARQLGVMPDLVLDMFINGYYLNVFKTQSTDVNRPYQDKDKRGGIFDAVFTRGDQTTLLTARHDLKNKGLNDISTIIKQELTEGRALALSHTYANVSISHVINLWGADFNAEGNLEAIYVTDSDANASIGMKKYFVGINAHGHVAISAKKIEGENIGAQVLGLFTLSSGKDIWQKLS | – | – | – | – | 755 | 213 | 0 | 0 |
| PRT-133 (protein) MRNATEAYAKEVPHQITSVWTKGVTPLTPEQFRYNNEDVIHAPYLAHQGWYDITKTFDGKDNLLCGAATAGNMLHWWFDQNKTEIEAYLSKHPEKQKIIFNNQELFDLKAAIDTKDSQTNSQLFNYFRDKAFPNLSARQLGVMPDLVLDMFINGYYLNVFKTQSTDVNRPYQDKDKRGGIFDAVFTRGDQTTLLTARHDLKNKGLNDISTIIKQELTEGRALALSHTYANVSISHVINLWGADFNAEGNLEAIYVTDSDANASIGMKKYFVGINAHGHVAISAKKIEGENIGAQVLGLFTLSSGKDIWQKLS | – | – | – | – | 774 | 207 | 0 | 12 |
| PRT-131 (protein) MRNATEAYAKEVPHQITSVWTKGVTPLTPEQFRYNNEDVIHAPYLAHQGWYDITKAFNGKDNLLCGAATAGNMLHWWFDQNKTEIEAYLKKHPEKQKIIFNNQELFDLKAAIDTKDSQTNSQLFNYFRDKAFPNLSARQLGVMPDLVLDMFINGYYLNVFKTQSTDVNRPYQDKDKRGGIFDAVFTRGDQTTLLTARHDLKNKGLNEISTIIKQELTEGRALALSHTYANVSISHVINLWGADFNAEGNLEAIYVTDSDANASIGMKKYFVGINAHGKVAISAKKIEGENIGAQVLGLFTLSSGKDIWQKLS | – | – | – | – | 745 | 201 | 0 | 0 |
| PRT-132 (protein) MRNATEAYAKEVPKQITSVWTKGVTPPTPEQFRYNNEDVIHAPYLAHQGWYDITKAFDGKDNLLCGAATAGNMLHWWFDQNKTEIEAYLSKHPEKQKIIFNNQELFDLKAAIDTKDSQTNSQLFNYFRDKAFPNLSARQLGVMPDLVLDMFINGYYLNVFKTQSTDVNRPYQDKDKRGGIFDAVFTRGDQTTLLTARHDLKNKTLNDISTIIKQELTEGRALALSHTYANVSISHVINLWGADFNAEGNLEAIYVTDSDANASIGMKKYFVGINAHGHVAISAKKIEGENIGAQVLGLFTLSSGKDIWQKLS | – | – | – | – | 697 | 219 | 0 | 0 |
| PRT-134 (protein) MRNATEAYAKEVPHQITSVWTKGVTPLTPEQFRYNNEDVIHAPYLAHQGWYDITKAFDGKDNLLCGAATAGNMLHWWFDQNKTEIEAYLSKHPEKQKIIFNNQELFDLKAAIDTKDSQTNSQLFNYFRDKAFPNLSARQLGVMPDLVLDMFINGYYLNVFKTQSTDVNRPYQDKDKRGGIFDAVFTRGDQTTLLTARHDLKNKGLNDISTLIKQELTEGRALALSHTYANVSISHVINLWGADFNAEGNLEAIYVTDSDANASIGMKKYFVGINAHGHVAISAKKIEGENIGAQVLGLFTLSSGKDIWQKLS | – | – | – | – | 597 | 174 | 0 | 0 |
| PRT-137 (protein) MRNATEAYAKEVPHQITSVWTKGVTPLTPEQFRYNNEDVIHAPYLAHQGWYDITKAFDGKDNLLCGAATAGNMLHWWFDQNKTEIEAYLSKHPEKQKIIFNNQELFDLKAAIDTKDSQTNSQLFNYFRDKAFPNLSARQLGVMPDLVLDMFINGYYLNVFKTQSTDVNRPYQDKDKRGGIFDAVFTRGDQTTLLTARHDLKNKGLNDISTIIKQELTEGRALALSHTYANVSISHVINLWGADFNAEGNLEAIYVTDSDANASIGMKKYFVGINAHGKVAISAKKIEGENIGAQVLGLFTLSSGKDIWQKLS | – | – | – | – | 662 | 198 | 0 | 0 |
